IntAct's records for PubMed 24591568

B1: Rab11 family-interacting protein 5 (Homo sapiens), Q9BXF6 (parent)
chain: MALVRGAEPAAGPSRWLPTHVQVTVLRARGLRGKSSGAGSTSDAYTVIQVGREKYSTSVVEKTHGCPEWREECSFELPPGALDGLLRAQEADAGPAPWAASSAAACELVLTTMHRSLIGVDKFLGQATVALDEVFGAGRAQHTQWYKLHSKPGKKEKERGEIEVTIQFTRNNLSASMFDLSMKDKPRSPFSKIRDKMKGKKKYDLESASAILPSSAIEDPDLGSLGKMGKAKGFFLRNKLRKSSLTQSNTSLGSDSTLSSASGSLAYQGPGAELLTRSPSRSSWLSTEGGRDSAQSPKLFTHKRTYSDEANQMRVAPPRALLDLQGHLDAASRSSLCVNGSHIYNEEPQGPVRHRSSISGSLPSSGSLQAVSSRFSEEGPRSTDDTWPRGSRSNSSSEAVLGQEELSAQAKVLAPGASHPGEEEGARLPEGKPVQVATPIVASSEAVAEKEGARKEERKPRMGLFHHHHQGLSRSELGRRSSLGEKGGPILGASPHHSSSGEEKAKSSWFGLREAKDPTQKPSPHPVKPLSAAPVEGSPDRKQSRSSLSIALSSGLEKLKTVTSGSIQPVTQAPQAGQMVDTKRLKDSAVLDQSAKYYHLTHDELISLLLQRERELSQRDEHVQELESYIDRLLVRIMETSPTLLQIPPGPPK
partner: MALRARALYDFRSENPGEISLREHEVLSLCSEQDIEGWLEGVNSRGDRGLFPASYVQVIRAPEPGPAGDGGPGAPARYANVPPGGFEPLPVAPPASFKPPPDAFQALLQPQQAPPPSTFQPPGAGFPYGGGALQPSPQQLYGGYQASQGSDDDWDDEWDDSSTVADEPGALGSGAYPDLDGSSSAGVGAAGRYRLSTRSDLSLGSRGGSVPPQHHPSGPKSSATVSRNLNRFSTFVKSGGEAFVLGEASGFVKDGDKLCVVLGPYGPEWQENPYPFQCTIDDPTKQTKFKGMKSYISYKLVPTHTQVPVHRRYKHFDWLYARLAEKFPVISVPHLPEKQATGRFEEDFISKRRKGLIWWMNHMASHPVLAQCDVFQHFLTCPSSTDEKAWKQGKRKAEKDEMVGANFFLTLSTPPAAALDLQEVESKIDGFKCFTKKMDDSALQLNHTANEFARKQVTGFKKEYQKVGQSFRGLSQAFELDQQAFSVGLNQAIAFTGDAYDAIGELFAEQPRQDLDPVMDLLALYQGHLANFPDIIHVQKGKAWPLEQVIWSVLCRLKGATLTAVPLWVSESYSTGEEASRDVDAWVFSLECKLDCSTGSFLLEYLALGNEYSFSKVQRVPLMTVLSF
B2: Rab11 family-interacting protein 5 (Homo sapiens), Q9BXF6 (parent)
chain: B1 chain

Variants of: B1
Details: with snx18_human SNX18, Q96RF0

Variant | effect of a mutation on the interaction
T276D | decreasing interaction

Variants of: B1
Details: with snx18_human SNX18, Q96RF0
Remark: another data set of the same source

Variant | effect of a mutation on the interaction
T276A | increasing interaction

Variants of: B2
Details: with kif3a_human KIF3A

Variant | effect of a mutation on the interaction
T276A | increasing interaction

Variants of: B2
Details: with kif3a_human KIF3A
Remark: another data set of the same source

Variant | effect of a mutation on the interaction
T276D | increasing interaction
